This passage reports percent of reference results from paper PMC4402209.

The target in this assay is KCTD12 (UniProt Q6WVG3). In words: anti-Rluc IP of Rluc-KCTD12, GB2 blot. As to conditions: reference: GB2-WT, no 8-Br-cAMP; sites S892.

In the case of “GABAB2 (GB2) (from UniProt O88871) GB2-WT, 8-Br-cAMP 1 mM 30 min”, the percent of reference is 103%.
